Assay results published in US20210277146A1 (BEIJING DONGFANG BIOTECH, published 2021).

Tests used:
PCSK9 [1] = molecular target: T1, PCSK9 (UniProt Q8NBP7 31-692, limits assumed); test: SPR BIAcore X100, antibody captured by goat anti-human IgG on CM5, PCSK9 as analyte
T1 construct: Printed only as 'PCSK9' in Embodiments 5.4 and 6; also called Proprotein Convertase Subtilisin/Kexin Type 9; PCSK9 solution

PCSK9-His [2] = molecular target: T2, PCSK9-His (UniProt Q8NBP7 31-692); test: competition ELISA, LDLR-Fc coated, PCSK9-His 2 ug/ml, antibody titrated, anti-His-HRP
T2 construct: also called antigen PCSK9-His; Proprotein Convertase Subtilisin/Kexin Type 9; not shown: His tag
Method: Coating LDLR-Fc (100 ng/well/100 μl) by 0.01M PBS buffer at pH 7.2 overnight at 4° C., washing three times with PBST, further adding PBST-4% milk, and blocking for one hour at 37° C.; further adding 2 μg/ml PCSK9-His (100 μlwell) diluted by PBST-4% milk, and incubating to one hour at 37° C.; adding complete antibodies DFSK9-1, DFSK9-12, DFSK9-13, DFSK9-14, DFSK9-15, DFSK9-16, DFSK9-17, DFSK9-18, DFSK9-19, DFSK9-20 and DFSK9-21 of different dilution degrees; the highest concentration of the 11 complete antibodies is 100 μg/ml, diluting at a five-time gradient, diluting for eight gradients for each complete antibody, and incubating for 2 hours at 37° C.; washing 5 times with PBST, further adding a mouse-anti His IgG-HRP secondary antibody diluted by PBST-4% milk, and incubating for 1 hour at 37° C.; developing by using the TMB developing kit (100 μl/well), developing for 10 minutes at the room temperature, and terminating developing with 2M H₂SO₄ (50 μl/well); reading numbers by using the microplate reader at 450 nm and 630 nm; analyzing data and drawing pictures by using software GraphPad Prism 5 Demo, and results are shown in FIG. 9 and table 3.

PCSK9-His [3] = molecular target: T2, PCSK9-His; test: ELISA, PCSK9-His coated, complete antibody titrated, anti-human IgG-HRP
Method: Coating PCSK9-His (300 ng/well/100 μl) by 0.01M PBS buffer at pH 7.2 overnight at 4° C., washing three times with PBST (1‰ Tween 20) of 300 μl/well, further adding PBST-4% milk, and blocking for one hour at 37° C.; adding complete antibodies DFSK9-1, DFSK9-12, DFSK9-13, DFSK9-14, DFSK9-15, DFSK9-16, DFSK9-17, DFSK9-18, DFSK9-19, DFSK9-20 and DFSK9-21 of different dilution degrees; the highest concentration of the 11 complete antibodies is 50 μg/ml, diluting at a five-time gradient, diluting for eight gradients for each complete antibody, and incubating for one hour at 37° C.; washing 5 times with PBST of 300 μl/well, further adding a goat-anti-human IgG-HRP secondary antibody diluted by PBST-4% milk at a ratio of 1:5000, and incubating for one hour at 37° C.; washing 5 times with PBST of 300 μl/well, developing by using a Tetramethylbenzidine (TMB) developing kit (100 μl/well), developing for 10 minutes at a room temperature, and terminating developing with 2M H₂SO₄ (50 μl/well); reading numbers by using a microplate reader at wavelengths of 450 nm and 630 nm; analyzing data and drawing pictures by using software GraphPad Prism 5Demo, and results are shown in FIG. 8 and table 2.

PCSK9 [4] = molecular target: T1, PCSK9; test: cell-based or functional assay

T1 sequence (Q8NBP7 31-692 limits assumed): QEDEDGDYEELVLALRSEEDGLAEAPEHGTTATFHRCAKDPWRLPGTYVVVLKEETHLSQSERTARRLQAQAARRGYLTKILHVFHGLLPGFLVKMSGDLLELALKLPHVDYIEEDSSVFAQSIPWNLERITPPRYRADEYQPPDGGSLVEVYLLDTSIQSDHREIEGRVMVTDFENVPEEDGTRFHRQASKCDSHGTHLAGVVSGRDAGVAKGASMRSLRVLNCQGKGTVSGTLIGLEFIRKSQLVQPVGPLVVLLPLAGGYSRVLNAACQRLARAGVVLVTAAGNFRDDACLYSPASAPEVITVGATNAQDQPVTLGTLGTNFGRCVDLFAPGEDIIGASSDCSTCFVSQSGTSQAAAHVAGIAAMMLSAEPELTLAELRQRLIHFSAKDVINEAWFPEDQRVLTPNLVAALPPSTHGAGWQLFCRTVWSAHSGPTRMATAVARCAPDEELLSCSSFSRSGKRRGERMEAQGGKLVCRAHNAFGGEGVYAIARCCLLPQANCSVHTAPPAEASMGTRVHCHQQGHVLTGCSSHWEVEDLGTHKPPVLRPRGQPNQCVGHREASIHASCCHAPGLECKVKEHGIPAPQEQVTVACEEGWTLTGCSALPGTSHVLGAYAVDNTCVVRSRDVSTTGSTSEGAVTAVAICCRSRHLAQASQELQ
T2 sequence (Q8NBP7 31-692 limits assumed): as above

Kd (PCSK9 [1])	koff (PCSK9 [1])	kon (PCSK9 [1])	IC50 (PCSK9-His [2])	EC50 (PCSK9-His [3])	EC50 value of bioactivity testing (BODIPY-LDL uptake in HepG2 cells, RFU) (PCSK9 [4])	Binder
0.175 nM	9.19e-05 s⁻¹	518000 M⁻¹ s⁻¹	0.847 µg/mL	0.171 µg/mL		DFSK9-1 complete antibody (antibody, V domains shown) VH: QVQLVQSGAEVKRPGASVKVSCKASGGTFTNNAISWVRQAPGQGLEWMGRIIPMFGMANYAQKLQGRGTMTTDPSTSTAYMELRSLRSDDTAVYYCAREGIPMIWGQGTTVTVSS VL: DIQMTQSPSSLSASVGDRVTITCRASQSIDNRLTWYQQKPGKAPKLLIYDASSRQSGVPSRFSGSGSGTDFTLTISSLQPEDFATYYCQQPENDPTTFGQGTKVEIK
0.052 nM	2.99e-05 s⁻¹	575000 M⁻¹ s⁻¹	0.383 µg/mL	0.0835 µg/mL	29.6 nmol/L	DFSK9-13 complete antibody (antibody, V domains shown) VH: QVQLVQSGAEVKKPGASVKVSCKASGYSLTSYGISWVRQAPGQGLEWMGWVSFYQGNTNYAQKLQGRGTMTTDPSTSTAYMELRSLRSDDTAVYYCARGYGMTVWGQGTTVTVSS VL: DIQMTQSPSSLSASVGDRVTITCRASQDVDSWLTWYQQKPGKAPKLLIYGASNLASGVPSRFSGSGSGTDFTLTISSLQPEDFATYYCQQDSKIPLTFGQGTKVEIK
0.00389 nM	1.99e-06 s⁻¹	512000 M⁻¹ s⁻¹	0.107 µg/mL	0.0339 µg/mL	23.9 nmol/L	DFSK9-18 complete antibody (antibody, V domains shown) VH: QVQLVQSGAEVKKPGASVKVSCKASGYTVTSYGISWVRQAPGQGLEWMGWVSFYNGNSNYAQKLQGRGTMTTDPSTSTAYMELRSLRSDDTAVYYCARGYSLDVWGQGTTVTVSS VL: DIQMTQSPSSLSASVGDRVTITCRASQNINSWLNWYQQKPGKAPKLLIYGASSRQSGVPSRFSGSGSGTDFTLTISSLQPEDFATYYCQQWFDVPTTFGQGTKVEIK
0.0157 nM	1.45e-05 s⁻¹	925000 M⁻¹ s⁻¹	0.216 µg/mL	0.0337 µg/mL	17.9 nmol/L	DFSK9-20 complete antibody (antibody, V domains shown) VH: QVQLVQSGAEVKKPGASVKVSCKASGYSLTSYGISWVRQAPGQGLEWMGWVSFYNGNSNYAQKLQGRGTMTTDPSTSTAYMELRSLRSDDTAVYYCARGFGMDRWGQGTTVTVSS VL: DIQMTQSPSSLSASVGDRVTITCRASQNINNWLNWYQQKPGKAPKLLIYGASTRPTGVPSRFSGSGSGTDFTLTISSLQPEDFATYYCQQWDDTPNTFGQGTKVEIK
0.119 nM	4.98e-05 s⁻¹	418000 M⁻¹ s⁻¹	0.266 µg/mL	0.0646 µg/mL		DFSK9-12 complete antibody (antibody, V domains shown) VH: QVQLVQSGAEVKKPGASVKVSCKASGYTVTSYGISWVRQAPGQGLEWMGWLSFYNGNTNYAQKLQGRGTMTTDPSTSTAYMELRSLRSDDTAVYYCARGYSLDVWGQGTTVTVSS VL: DIQMTQSPSSLSASVGDRVTITCRASQSVRNWLDWYQQKPGKAPKLLIYGASTLESGVPSRFSGSGSGTDFTLTISSLQPEDFATYYCQQDNDIPLTFGQGTKVEIK
0.0293 nM	7.9e-05 s⁻¹	2.7e+06 M⁻¹ s⁻¹	0.146 µg/mL	0.0422 µg/mL	16.6 nmol/L	DFSK9-14 complete antibody (antibody, V domains shown) VH: QVQLVQSGAEVKKPGASVKVSCKASGYSLTSYGISWVRQAPGQGLEWMGWVSFYNGQTNYAQKLQGRGTMTTDPSTSTAYMELRSLRSDDTAVYYCARGYGMSIWGQGTTVTVSS VL: DIQMTQSPSSLSASVGDRVTITCRASQNINSWLNWYQQKPGKAPKLLIYGASSRQSGVPSRFSGSGSGTDFTLTISSLQPEDFATYYCQQWFDVPTTFGQGTKVEIK
0.00156 nM	1.84e-06 s⁻¹	1.18e+06 M⁻¹ s⁻¹	0.089 µg/mL	0.0314 µg/mL	18.5 nmol/L	DFSK9-17 complete antibody (antibody, V domains shown) VH: QVQLVQSGAEVKKPGASVKVSCKASGYTVTSYGISWVRQAPGQGLEWMGWVSFYNGNSNYAQKLQGRGTMTTDPSTSTAYMELRSLRSDDTAVYYCARGYSLDVWGQGTTVTVSS VL: DIQMTQSPSSLSASVGDRVTITCRASQNINNWLNWYQQKPGKAPKLLIYGASTRPTGVPSRFSGSGSGTDFTLTISSLQPEDFATYYCQQWDDTPNTFGQGTKVEIK
0.00875 nM	4.75e-06 s⁻¹	542000 M⁻¹ s⁻¹	0.114 µg/mL	0.0397 µg/mL	15.3 nmol/L	DFSK9-15 complete antibody (antibody, V domains shown) VH: QVQLVQSGAEVKKPGASVKVSCKASGYTVTSYGISWVRQAPGQGLEWMGWVSFYNGQTNYAQKLQGRGTMTTDPSTSTAYMELRSLRSDDTAVYYCARGYSLDVWGQGTTVTVSS VL: DIQMTQSPSSLSASVGDRVTITCRASQNINNWLNWYQQKPGKAPKLLIYGASTRPTGVPSRFSGSGSGTDFTLTISSLQPEDFATYYCQQWDDTPNTFGQGTKVEIK
0.186 nM	7.34e-05 s⁻¹	395000 M⁻¹ s⁻¹	0.533 µg/mL	0.0832 µg/mL		DFSK9-19 complete antibody (antibody, V domains shown) VH: QVQLVQSGAEVKKPGASVKVSCKASGYSLTSYGISWVRQAPGQGLEWMGWVTFYNGNTNYAQKLQGRGTMTTDPSTSTAYMELRSLRSDDTAVYYCARGFGLSVWGQGTTVTVSS VL: DIQMTQSPSSLSASVGDRVTITCRASQNVNNWLNWYQQKPGKAPKLLIYAASTRETGVPSRFSGSGSGTDFTLTISSLQPEDFATYYCQQDNDMPLTFGQGTKVEIK
0.0461 nM	5.61e-05 s⁻¹	1.22e+06 M⁻¹ s⁻¹	0.282 µg/mL	0.0562 µg/mL	23.8 nmol/L	DFSK9-16 complete antibody (antibody, V domains shown) VH: QVQLVQSGAEVKKPGASVKVSCKASGYTVTSYGISWVRQAPGQGLEWMGWVSFYQGNTNYAQKLQGRGTMTTDPSTSTAYMELRSLRSDDTAVYYCARGFGMDRWGQGTTVTVSS VL: DIQMTQSPSSLSASVGDRVTITCRASQNINSWLNWYQQKPGKAPKLLIYGASSRQSGVPSRFSGSGSGTDFTLTISSLQPEDFATYYCQQWFDVPTTFGQGTKVEIK
0.00716 nM	4.24e-06 s⁻¹	592000 M⁻¹ s⁻¹	0.161 µg/mL	0.0282 µg/mL	20.3 nmol/L	DFSK9-21 complete antibody (antibody, V domains shown, also called DF5K9-21) VH: QVQLVQSGAEVKKPGASVKVSCKASGYSLTSYGISWVRQAPGQGLEWMGWVSFYNGQTNYAQKLQGRGTMTTDPSTSTAYMELRSLRSDDTAVYYCARGFGMDRWGQGTTVTVSS VL: DIQMTQSPSSLSASVGDRVTITCRASQNINNWLNWYQQKPGKAPKLLIYGASTRPTGVPSRFSGSGSGTDFTLTISSLQPEDFATYYCQQWDDTPNTFGQGTKVEIK
